These results are taken from US20170298096A1 (CANIMGUIDE THERAPEUTICS, published 2017).

No end group written: not given here.

In one assay the target is T1, His-tagged P3028 (human, not fully specified).
T1 construct: the tag is put first after 'PGE73=His-tag-P3028'; also called PGE73; not shown: His-tag
T1 peptide: {His‑tag}-VFDEFKPLVEEPQNLIK
The experiment in a line: chip ELISA. In general terms: In an ELISA, binding on a coated surface is turned into a signal by an enzyme label.
For the molecule KKLDNFFVKLSLFTER [P28R T5N], the ELISA signal came out at 436.
Turning to KKLDTFFSKLSLFTER [P28R V8S], the ELISA signal was found to be 216.
In the case of KKLDTFFFKLSLFTER [P28R V8F], the ELISA signal turned out to be 358.
The molecule KKLDTFFVKLSLFRER [P28R T14R] yielded an ELISA signal of 264.
KKLDTFFVKLSLFLER [P28R T14L] had an ELISA signal of 360.
In the case of KKLDTFFVKLSLFWER [P28R T14W], the ELISA signal came out at 374.
Consider KKLDTFFVKLSLFQER [P28R T14Q], for which the ELISA signal stood at 301.
For KKLDTFFVKLSLFEER [P28R T14E], the ELISA signal was 110.
KKLDTFFVKLSLFKER [P28R T14K] displayed an ELISA signal of 259.
Turning to KKLDTFFLKLSLFTER [P28R V8L], the ELISA signal was 411.
On to KKLDTFFEKLSLFTER [P28R V8E], for which the ELISA signal was 139.
Consider KKLDTFFVKLSLFVER [P28R T14V], for which the ELISA signal came out at 380.
As for KKLDTFFHKLSLFTER [P28R V8H], the ELISA signal worked out at 213.
Regarding KKLDRFFVKLSLFTER [P28R T5R], the ELISA signal amounted to 430.
The molecule KKLDTFFVKLSLFNER [P28R T14N] came in with an ELISA signal of 599.
With KKLDSFFVKLSLFTER [P28R T5S], the ELISA signal worked out at 458.
Consider KKLDVFFVKLSLFTER [P28R T5V], for which the ELISA signal came out at 374.
KKLDTFFQKLSLFTER [P28R V8Q] displayed an ELISA signal of 271.
Consider KKLDTFFWKLSLFTER [P28R V8W], for which the ELISA signal was 228.
For the molecule KKLDTFFDKLSLFTER [P28R V8D], the ELISA signal was 122.
KKLDTFFVKLSLFMER [P28R T14M] returned an ELISA signal of 501.
The same measure, in the same setting: the value for KKLDTFFVKLSLFIER [P28R T14I] was 375; that for KKLDTFFTKLSLFTER [P28R V8T] was 298; that for KKLDTFFAKLSLFTER [P28R V8A] was 299.
As for KKLDQFFVKLSLFTER [P28R T5Q], the ELISA signal came to 535.
Same read-out and setting: with KKLDTFFRKLSLFTER [P28R V8R] the figure was 365.
On the same count and under the same terms, with KKLDTFFNKLSLFTER [P28R V8N] the figure was 203; with KKLDTFFVKLSLFYER [P28R T14Y], 270.
On to KKLDWFFVKLSLFTER [P28R T5W], for which the ELISA signal is 418.
The molecule KKLDTFFKKLSLFTER (also called P27; SCF27) [P28R V8K] gave an ELISA signal of 253.
The molecule KKLDTFFYKLSLFTER [P28R V8Y] gave an ELISA signal of 211.
Same read-out and setting: the value for KKLDTFFVKLSLFFER [P28R T14F] was 348.
Take KKLDTFFMKLSLFTER [P28R V8M]: the ELISA signal came to 221.
KKLDYFFVKLSLFTER [P28R T5Y] came in with an ELISA signal of 425.
KKLDTFFVKLSLFAER [P28R T14A] displayed an ELISA signal of 305.
KKLDTFFVKLSLFSER [P28R T14S] had an ELISA signal of 369.
Consider KKLDTFFIKLSLFTER [P28R V8I], for which the ELISA signal worked out at 401.
For KKLDTFFVKLSLFDER [P28R T14D], the ELISA signal is 159.
On the same count and under the same terms, the value for KKLDTFFVKLSLFHER [P28R T14H] was 463.

A further assay has as its target T2, His-tagged P3028 (human, also: His-tag, terminus and sequence not given here).
T2 construct: used in solution in the PEPSCAN (rampo) ELISA; also called PGE73; His-tag-P3028; not shown: His tag
T2 peptide: VFDEFKPLVEEPQNLIK
The experiment in a line: PEPSCAN ELISA (rampo).
RKLDTFFVKLSLFTER [SEQ ID NO 3] returned a rampo value above 500 rampo units.
Molecule KKLDTFLVKLSLFTER [SEQ ID NO 13] gave a rampo value above 500 rampo units.
For the molecule AKLDTFFVKLSLFTER [SEQ ID NO 268], the “rampo score relative to the P28R control sample” value was ≥ 98 % of P28R control.
In turn, KKLDTVFVKLSLFTER [SEQ ID NO 8] showed a rampo value above 500 rampo units.
KKGDTFFVKLSLFTER [SEQ ID NO 4] yielded a rampo value above 500 rampo units.
As for DKLDTFFVKLSLFTER [SEQ ID NO 269], the “rampo score relative to the P28R control sample” value was ≥ 98 % of P28R control.
Regarding KKLDTFFVKLSVFTER [SEQ ID NO 20], the rampo value was above 500 rampo units.
Turning to KKLDTFFVKVSLFTER [SEQ ID NO 14], the rampo value was above 500 rampo units.
Molecule KKLDTFFVKLSLFNER [SEQ ID NO 31] yielded a rampo value above 500 rampo units.
On the same count and under the same terms, the value for KKLDTFFVKLSLRTER [SEQ ID NO 30] was above 500 rampo units.
Consider KKEDTFFVKLSLFTER [SEQ ID NO 5], for which the rampo value was above 500 rampo units.
The molecule KKLDTAFVKLSLFTER [SEQ ID NO 7] displayed a rampo value above 500 rampo units.
Molecule KKLDTFFVKLSMFTER [SEQ ID NO 21] gave a rampo value above 500 rampo units.
KKLDTFFVKLTLFTER [SEQ ID NO 17] came in with a rampo value above 500 rampo units.
In the case of KKLDTFFVKLSLGTER [SEQ ID NO 28], the rampo value is above 500 rampo units.
KKLDTFFVKLSLATER [SEQ ID NO 29] registered a rampo value above 500 rampo units.
On to KKLDTFFVKLSLSTER [SEQ ID NO 27], for which the rampo value is above 500 rampo units.
Take KKLDQFFVKLSLFTER [SEQ ID NO 6]: the rampo value was above 500 rampo units.
Consider KKLDTFFVKLSQFTER [SEQ ID NO 19], for which the rampo value is above 500 rampo units.
For the molecule KKLDTFFVKLSLFRER [SEQ ID NO 33], the rampo value is above 500 rampo units.
With KKLDTFFVKLHLFTER [SEQ ID NO 18], the rampo value was above 500 rampo units.
In the case of KKLDTFVVKLSLFTER [SEQ ID NO 11], the rampo value was above 500 rampo units.
The same measure, in the same setting: the value for KKLDTFFVKLSLPTER [SEQ ID NO 26] was above 500 rampo units; that for KKLDTFFVKLSLFPER [SEQ ID NO 32] was above 500 rampo units; that for KKLDTFTVKLSLFTER [SEQ ID NO 12] was above 500 rampo units.
